From the RNAGym collection of RNA variant scans (doi:10.1073/pnas.2313332121)

B1: TPR t1 (parent)
chain: GACCAAUCUGCCCUCAGAGCUCGAGAACAUCUUCGGAUGCAGAGGAGGCAGGCUUCGGUGGCGCGAUAGCGCCAACGUCCUCAACCUCCAAUGCAUCCCACCACAUGAUGAUGCCUGAAGAGCCUUGGUUUUUUG

Variants of: B1
Assay: polymerase ribozyme fitness, log enrichment relative to wild type (log ratio); higher = more active; in vitro selection for triplet polymerase activity
Outline: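 Both subunits of a heterodimeric triplet polymerase ribozyme were given their own mutant library, built by PCR and transcribed. Each library was annealed with a biotinylated primer, the partner subunit and triplets, incubated frozen at −7 °C, and its extended constructs gel-excised, captured on streptavidin beads and amplified by RT-PCR, all in one round done in triplicate. Fitness is the logarithm of genotype enrichment relative to wild-type enrichment, with replicates averaged by inverse-variance weighting. That logarithm is base 2, and Illumina-sequenced genotypes needed ≥10 input reads and ≥1 read per output.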

Variant | polymerase ribozyme fitness (log ratio)
G39U C40U G42A C56U | -2.23
G39U C49A C72A G93C A95C C115U | -5.1
G39U C49A C80U | -3.62
G39U C49G C64U G117C | -4.42
G39U C49U C56U | -1.53
G39U C49U C97A C124A G127A | -5.83
G39U C53A C82A C124G | 1.35
G39U C53G C123U | 1.06
G39U C56G C102U | -2.53
G39U C56U C73U | -1.4
G39U C62A C70U | -2.07
G39U C62U | -1.71
G39U C62U G117U | -3.18
G39U C70G | -4.12
G39U C70U A103C C114U A119U G120A U130A | -5.71
G39U C72G C82G | -2.35
G39U C86G C104A | -4.01
G39U C88U A121G | 0.804
G39U C94U G113C A118C | -3.27
G39U C101G | -3.29
G39U C115G | -2.58
G39U C123G | 0.0216
G39U C123U | 0.845
G39U C124A | 0.161

Variant | polymerase ribozyme fitness (log ratio)
G39U G44U C53G C62A C98U U112A U129C U130A | -5.78
G39U G45A | -2.22
G39U G45C U87A C114U | -6.43
G39U G48U | -1.59
G39U G51A A118G | -4.52
G39U G52A | -1.4
G39U G52U | -1.9
G39U G60A C76G | -3.27
G39U G61A A75U U81C C99A G117U | -7.32
G39U G61A C101U G117A A118G U125A | -0.872
G39U G61C | -1.66
G39U G61C U130G | -2.15
G39U G61U U106A | -0.274
G39U G63A | -1.75
G39U G63C A91C G113U A121C | -3.83
G39U G77U C89U | -1.38
G39U G110C A121C | -4.8
G39U G113A | -1.25
G39U G113A U132A | -2.47
G39U G120A | -0.0767
G39U G128C | -3.25
G39U U78C G120A | 0.169
G39U U92C C101G | -5.46
G39U U106C | -0.461

Variant | polymerase ribozyme fitness (log ratio)
C40A A41C C49A C70U U92A C102G U109A | -6.25
C40A A41U G69U G135C | -0.488
C40A A43U C70U C86U G93U C97G G135C | -6.34
C40A A43U G44C G71U C82A | -4.65
C40A A46U C79G C104U | -6.75
C40A A50G G71U C85U | -2.76
C40A A74G U130C | -0.804
C40A A84G A95C U125G U126G U129A | -4.98
C40A A105G | -4.43
C40A C49U U59A G60A G117C | -7.16
C40A C56U C72G | -3.26
C40A C62A A118G | -2.61
C40A C64U | -2.19
C40A C64U C80U | -2.24
C40A C72G U78C A121G U132A | 0.388
C40A C79A | -2.9
C40A C79G G93C G110A U133A | -5.44
C40A C85A | -1.95
C40A C88A G117A | -3.85
C40A C89G C94A | -4.16
C40A C102A G113U C124A | -6.46
C40A C104U G110A C124U | -2.31
C40A C114G | -3.8
C40A C124U | 0.897

Variant | polymerase ribozyme fitness (log ratio)
C40A G42A C56G C72A A84C | -4.52
C40A G47A | -3.03
C40A G47A G63U | -4.41
C40A G48A C86A | -2.18
C40A G48A U55A G60A A95G G120C | -1.53
C40A G48U | -1.61
C40A G60A C85G | -2.93
C40A G60A G110C | -6.85
C40A G60A G113U G122C | -4.23
C40A G61C A118U U130G | -3.57
C40A G61C U126G | -5.2
C40A G61U G93U A100C | -1.18
C40A G77A A84U C94U U106A | -2.81
C40A G93A A111C | -1.04
C40A G135U | -2.63
C40A U54C C82G A118U C123U | -0.573
C40A U78A C79U U109A | -6.14
C40A U78C U92A C115U | -4.02
C40A U78G C88G | -4.1
C40A U92G | -2.37
C40G A43C A111C A119G | -4.45
C40G A43C G69U G120C | -0.592
C40G A43U U112G A119U U126A | -4.57
C40G A46U C56A U92A C114U | -6.09

Variant | polymerase ribozyme fitness (log ratio)
C40G A74G C86A | -1.94
C40G A90C U106C U116G A119G U125G | -3.17
C40G A100C | -2.29
C40G A111C | -0.485
C40G A111G | -0.323
C40G C49G G61U U87G U129A | -2.49
C40G C49U A74U U78A | -3.07
C40G C53U A121C | 1.26
C40G C56A U106C | -1.47
C40G C56G C70A | -4.24
C40G C56U | -1.79
C40G C56U A100U C101G | -2.81
C40G C62A | -1.9
C40G C64G C85A U112C | -6.02
C40G C64U | -1.16
C40G C70A | -3.86
C40G C72G U92A G113U | -4.69
C40G C72U C102U U116G C124U | -4.29
C40G C80U G122U | -3.37
C40G C88U G122A | -2.03
C40G C94G A121U | -0.125
C40G C101U | -1.22
C40G C104U G113C G122A | -3.43
C40G C114A | -2.35

Variant | polymerase ribozyme fitness (log ratio)
C40G C124U | 0.744
C40G G44C C73U U125G | -2.93
C40G G45A A46C G51C G58A G63C G110A G113U G117C | -7.24
C40G G45U C88G U92A | -4.08
C40G G47U G93U U129C U133G | -2.76
C40G G48A | -1.87
C40G G48U | -1.55
C40G G51A A68G | -6.59
C40G G52A C62U G128C | -3.34
C40G G57C | -1.56
C40G G57U A91C | -3.44
C40G G60U | -0.737
C40G G60U A68G | -4.86
C40G G61A C72U U112C | 1.6
C40G G61C G69U | -2.88
C40G G61U C72G G117C | -4.91
C40G G63U C80G C123U | -6.43
C40G G71U C79A | -2.32
C40G G110U | -1.7
C40G G113A | -0.856
C40G G122U | -0.991
C40G G127C | -1.55
C40G U55G G71A C85A | -3.12
C40G U92C | -1.63

Variant | polymerase ribozyme fitness (log ratio)
C40G U92G | -2.95
C40G U116C | -2.34
C40U A41C C56A C114A | -2.89
C40U A41C C76U U112A G122A | -3.19
C40U A41C G48U C56U G58C | -1.43
C40U A43C G93C C115A | -2.74
C40U A74C G120A U131C | 0.155
C40U A74G G77U C123U | 1.22
C40U A95U G117C A121C | -5.49
C40U A100G | -4.16
C40U C49G U59A | -1.73
C40U C53A | 0.0513
C40U C53A G113C | -2.73
C40U C53G | 0.608
C40U C53U A75G C82U | -0.592
C40U C56G C72A C76A | -2.93
C40U C64U A90C | -1.97
C40U C64U C73G G122A | -5.15
C40U C70A G128A | -4.95
C40U C72A | -0.504
C40U C72U | -1.69
C40U C73A | -0.621
C40U C73U A75C | -0.514
